Test: label from the status in PepcDB records
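Further: failed if final PepcDB status was selected cloned or expressed and not failed if soluble or beyond.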

Sequence	protein production
LGEICKAVLVDPSSNLTLDHWADKCGLSRRTLTRLFRRETGQSFSGWRQRVRLLEALARLGAGETVTGVALDVGYDSPSAFAAMFKRELGAAPRHYLR	failed
ETQPESAAFTAPSTDNPIRINFNENPLGMSPKAQAAARDAVVKANRYAKNEILMLGNKLAAHHQVEAPSILLTAGSSEGIRAAIEAYASLEAQLVIPELTYGDGEHFAKIAGMKVTKVKMLDNWAFDIEGLKAAVAAYSGPSIVYLVNPNNPTGTITPADVIEPWIASKPANTMFIVDEAYAEFVNDPRFRSISPMITQGAENIILLKTFSKIHAMAGMRVGYAVAHPTVIALMGRYVAGEKINFSGVDAALASMNDSAFITYSKKSNDVSRQILLKALEDLKLPYLPSEGNFVFHQLVVPLKDYQTHMADAGVLIGRAFPPADNWCRISLGTPQEMQWVADTMREFRKKSWI	not failed
MTQQHPHLLEPELGEFLTALKNTPSRLTARTAAWLCIWTASRPGMVRLAEWKEFDLDKATWTTPAAKMKMRRDFVCPLPHQAIAALKELHCLTGRSRWLFPGVGAKNPTISENTINKVFATIGYKGRLVGHGTRHTASTLLREHGWPKEHVEAQLAHKEEGLEHHHHHH	failed
MVHAFLIHTLRAPNTEDTGLCRVLYSCVFGAEKSPDDPRPHGAERDRLLRKEQILAVARQVESMCRLQQQASGRPPMDLQPQSSDEQVPLHEAPRGAFRLAAENPFQEPRTVVWLGVLSLGFALVLDAHENLLLAEGTLRLLTRLLLDHLRLLAPSTSLLLRADRIEGILTRFLPHGQLLFLNDQFVQGLEKEFSAAWPR	failed
MSPENKICMEQSEDGDLDAGDELFEEVDGDGKGEIFANRELLNIDHVPDENRIVGRDEHITELANEIGPAVTGSPPNSVILYGKTGSGKSLVANHVMERARREAQRRDRRLATVTVDCAQSRGEADTVQTIADKINRSTSGVTVPTRGISTNEYYNRLWQILGTEYDAALITLDEVDRLSDDDILMILSRAREAGKVDVPIGIISISNKVNFREQMTERVKSSLGHNEMIFDPYDGEQLRQILENRKDAFQEDILMPGVIPKTAALAAQRHGDARKAIRLLRHAGDYAKTNNIGTVKESHLELAQEQAEVERLKELISGLPPHSKYVLYALANLTDGTTNSNDWFRTTVIYDVYEEVCKTEATDTLTTDTIRGLLNELAFLEITESNQEHGGMGKGTYKEHRLLWDPNVVFKMNPGSAQVDTDR	failed
MRAISQYIAIFVITLTLSGCFFQNSDDQRWELAPQGTTSFALSRDARFALFFVKNDSIPEKNESQVKSGLHFWDLVENKELTFFGDQDQDKSTVSYIRISDNSRFAITATQTNFAVWDLGMGISEGLWSISDGIIRDVAIASNGQQVLLGLSNGKAIYINLATGRRLEFLAHREKVNSVALSANGKFALSGGNDYFAYLWDTETGQILRTFEHEKRVSRTALQRDGKYAFTADGGNEGFIWDLKTGEKITELSTLARQQVYSTARFSDDGQLLVTGSPSGTVNVWNTTSGKKLEQWRSEPLKDARPPTAVVYDVAIDKQQRVVSATSAGIAQAWLIE	failed
MHGTRRTRKDSPCMPAIHRAPLLRRREFRHEDRNGSLAPALDLIAWSRSAFGWLAHQPYLLLSLTSLFWAGNIVLGRAVAGHVPPVTLSCARWVGAMLLLLPFAWPHLRHDWRKLRAQWKLMIVLSATGFAINNALSYWGLQYTQALNALLMQSSGPLFVALWSLLLFGVRLTWMQATGIALSLLGVLTIILRGDFAALAGIELNRGDLMVAGALCAFGLYSALMPKRPATHPLSLIVVTTGCGALLLLPFSAWEYASGVRPSADWISVATLAYVVIFPSMLAYLCFNRGVALIGPNRSAPFLHLMPVFGSVMAIVLLGEKPELFHLAGYAMVVAGVFIAARR	failed
IDSGLSPSVLMASNSGRRSAPPLNLTGLPGTEKLNEKEKELCQVVRLVPGAYLEYKSALLNECHKQGGLRLAQARALIKIDVNKTRKIYDFLIREGYITKA	not failed
MKVASGSTATAAAGPSCALKAGKTASGAGEVVRCLSEQSVAISRCAGGAGARLPALLDEQQVNVLLYDMNGCYSRLKELVPTLPQNRKVSKVEILQHVIDYIRDLQLELNSESEVGTPGGRGLPVRAPLSTLNGEISALTAEAACVPADDRILCR	failed
VFEQELENGLRLFIIPKPGFQKTFVTYTTQFGSLDNQFKPLGQDQFVTVPDGVAHFLEHKLFEKEEEDLFTAFAEDNAQANAFTSFDRTSYLFSATDNIENNIKRLLTMVETPYFTKETVDKEKGIIAEEIKMYQEQPGYKLMFNTLRAMYQRHPIRVDIAGSVESIYDITKDDLYLCYETFYHPSNMVLFVVGDVNPEEICRIVKQH	failed
MQVRTLTPDDLPQACALCMDAFMQAVAPTLSAQGIETFTQVSAPQAFAERMQGDNLMLACFVEGAIAGLIELKEGRHIAMLFIAPGLQRQGIGKRLMNAALEHASAEVVTVKASLSSVPAYQRYGFTLAGDVGEFAGLVYQPMEKRLPTQPALEHHHHHH	not failed
MRQGEPGSPFSYLPVYQGPAVMSLRIFYHPLYSALTLPARHRFPLAKYQALFERLGSLGYPLAEAAPATPEQIKRVHDAAYVEAALAGTLDADAIRQLGFPWSPLLMERTLRSVGATLAASRHALEQGCGLQISGGYHHAHRDVGSGFCLFNDLVIAAQVCLDEGRCEQVLIVDLDVHQGDGSAALCQGRRDIITLSLHGEHNFPRYKPASHMDFPLPSGMADDAYLTTLAEALNLALRLYAPDLILYQAGVDVHKDDELGYLALSDEGIRQRDAMVFDCALRHGLPIAAVPGGGYRRDWQQLIPLHMSLFEEAKKRYG	failed
MIFMRKVVAEVSIIPLGKGASVSKYVKKAIEVFKKYDLKVETNAMGTVLEGDLDEILKAFKEAHSTVLNDVDRVVSSLKIDERKDKENTIERKLKAIGEL	not failed
MGTIILTWNIQWGRGADGRVDLSRMLAEARAMGSFDVLCLQEVTSGFGHLPGQPGEDQWQELAGALGQAFTLIDGIALERHEGAQIRRFGNAIATRLPVLHVARHALPCPADAGPTMPRMAIEAIVQAPFGPLRVVSTHLEYYSETQRIAQIDALRALHVEGCMRAAHPPTLGPEPTDGPFRPLAQTRATVICGDFNCKPDSKPKRLATVPFSHEAAALYDAWETAHGPTPQPPTFGVHDRTGWTEPAYACDFMLVSEPLKTRVTRVEVNSTTQASDHQPTLLELRDAE	failed
MLTDSGGGGTSFEEDLDSVAPRSAPAGASEPPPPGGVGLGIRTVRLFGEAGPASGVGSSGGGGSGSGTGGGDAALDFKLAAAVLRTGGGGGASGSDEDEVSEVESFILDQEDLDNPVLKTTSEIFLSSTAEGADLRTVDPETQARLEALLEAAAFADPEVLRRLTSSVSCALDEAAAALTRMKAENSHNAGQVDTRSLAEACSDGDVNAVRKLLDEGRSVNEHTEEGESLLCLACSAGYYELAQVLLAMHANVEDRGNKGDITPLMAASSGGYLDIVKLLLLHDADVNSQSATGNTALTYACAGGFVDIVKVLLNEGANIEDHNENGHTPLMEAASAGHVEVARVLLDHGAGINTHSNEFKESALTLACYKGHLDMVRFLLEAGADQEHKTDEMHTALMEACMDGHVEVARLLLDSGAQVNMPADSFESPLTLAACGGHVELAALLIERGANLEEVNDEGYTPLMEAAREGHEEMVALLLAQGANINAQTEETQETALTLACCGGFSEVADFLIKAGADIELGCSTPLMEASQEGHLELVKYLLASGANVHATTATGDTALTYACENGHTDVADVLLQAGADLDKQEDMKTILEGIDPAKHQVRVAFDACKLLRKE	failed
MKRNSSIDLMKSCAIFFVISVHFLLNSGFYDMTIHSTLAIFWIGIRTILITCVPLFLVATGFLMNRKELSAQYVLGIVPVIISYIGISLLVWGVLSLVGKGSDFSTAINGIFDYSTDSYSWYVEMYLGLYLFIPLLNIIWNYKKEIKNYHLYIVFIASLLTFLPSLLNSFGKVIPDYWQICYPVSYYFIGAYLYTYQNEIKKISIGKLVTAFLSALTIFTLTDTFASWNQEFQWLDHNDYFGYQTAIMTVLVIAILWRTPIPKWSVRLLKALSTATLTIYLISDLTDQFVYGFFKHEIPNLSQRVIAGPIIIPVAFTSAALLGIFVGKVLNIPFKRKKERKEN	failed
MNGRRTIGEDGLVFGLVVIVALVAAVVVGTVLGHRYRVGPPVLLILSGSLLGLIPRFGDVQIDGEVVLLLFLPAILYWESMNTSFREIRWNLRVIVMFSIGLVIATAVAVSWTARALGMESHAAAVLGAVLSPTDAAAVAGLAKRLPRRALTVLRGESLINDGTALVLFAVTVAVAEGAAGIGPAALVGRFVVSYLGGIMAGLLVGGLVTLLRRRIDAPLEEGALSLLTPFAAFLLAQSLKCSGVVAVLVSALVLTYVGPTVIRARSRLQAHAFWDIATFLINGSLWVFVGVQIPGAIDHIAGEDGGLPRATVLALAVTGVVIATRIAWVQATTVLGHTVDRVLKKPTRHVGFRQRCVTSWAGFRGAVSLAAALAVPMTTNSGAPFPDRNLIIFVVSVVILVTVLVQGTSLPTVVRWARMPEDVAHANELQLARTRSAQAALDALPTVADELGVAPDLVKHLEKEYEERAVLVMADGADSATSDLAERNDLVRRVRLGVLQHQRQAVTTLRNQNLIDDIVLRELQAAMDLEEVQLLDPADAE	failed
MWFQLSSLRSILNVSTALRQVVVRTPWYAKRKSYKVLFWREITPLAIPIFLENTCVLLMGVLSTFLVSWLGKEAMAGVGLADSFNMVIMAFFAAIDLGTTVVVAFSLGKRDRRRARAAARQSLVIMTLFAVVLAVVIHYFGSEIINIVAGEATPEVKGLALTYLELTVLSYPAAAIALIGSGALRGAGNTKIPLMINGGMNILNIVISSILIYGAFSWQGLGFAGAGLGLTISRYIGAVAIIWVLMIGFNPALRIPLKSYLKPLNFGIIWEVMGIGIPASIESVLFNGGKLLTQMFVAGMGTNVIAGNFIAFSVAALINLPGNALGSASTIITGKRLGTGQIGQAERQLRHVFWMSTIVLTAIAWGTAPFAGLFASFYTQEQDVKEVVKVLLWLNAAFMPIWAAAWVLPSGFKGARDVRFAMWVSMLGMWGCRVVAGYTLGIVLGMGVVGVWLGMFLDWAVRGALFYWRLISGRWLWRYPRVKRE	failed
MMPSSSTPNAFQYAWRNPWVRLVVFLGLFYLLYLFIGQITTVLVDFAVAFLIAYLANPLLGWLERGRVRRGLGVFFVLLLFLGLLALAGALVVTVGGQFVQLFQNLPAQIDNLNRILDGAVQWLSGRGIPGLADAQTRMTEALRDWIANIGNNIVPILQNALSSTGTLFNRLISIGGVIGQVLLILLLSVYLMLDYARVNASLLRAFPRPWQPKVLEFSDLIGTAVGGYVRGQLLIAAFIGIFVWLGLTIVGIPSAAAIGFLAGAFNIVPYLGPIIGATPALLLALTLPNAGFKMILVVVVFVLANQIEGNFLSPYILSKTTDLHPVTVLLAILVGVALMGFAGALLAVPLVALGKLMLEKYYYPSRVYSQGP	failed
TVASRLSDTKAAGEVKALDDFYKMLQHEPDRAFYGLKQVEKANEAMAIDTLLISDELFRHQDVATRSRYVRLVDSVKENAGTVRIFSSLHVSGEQLSQLTGVAAILRFPVP	not failed
MNGSLQRSHMEIVPDTSVVIDGRVSDQVKADADPDTDVDGMGFAGATVVVPEAVVGELEAQANDGRETGWEGLEELQTLVDLAEEGTIDVEYVGRRPDAIEKREAGEGQIDALIRDIAGDRDATLVTSDDVQAEVARAKGLAVEFVDPVKRTVDRLQI	failed
MTKMLKLFDAHFHIIDYRFPLITNQSYLPPEFTVEDYLQRAKPLNICGGAVVSGSFQAFDQSYLLAALSILGSDFVGVTQLPATVSDEEIIQLNQKGIRAVRFNVKRGGSENIHRLKYFAHRIYEMVRWHVEIYVDSKDLGDLTSLLLELPAVSIDHLGLSHSGFSQLLHLVEHGIKIKASGFGRVDFDVKKALQTIAQINPDALLFGTDLPSTRAPRPFLDSDIQIIQDLFDEKLTEKILYRNARNFYSKNSSELEHHHHHH	not failed

From a protein production outcome set (Wang et al. 2014)
